Measured values: the DeepSol protein solubility set

Assay: soluble on expression in E. coli; label from the status in PepcDB or PDB records

In the case of “VSDGEQAKSRRRRGRRRGRRAAATAENHMDAQPAGDATPTPATAKRSRSRSPRRGSTRMRTVHETSAGGLVIDGIDGPRDAQVAALIGRVDRRGRLLWSLPKGHIELGETAEQTAIREVAEETGIRGSVLAALGRIDYWFVTDGRRVHKTVHHYLMRFLGGELSDEDLEVAEVAWVPIRELPSRLAYADERRLAEVADELIDKLQSDGPAALPPLPPSSPRRRPQTHSRARHADDSAPGQHNGPGPGP”, the “soluble on expression in E. coli” value is reported as “not soluble”.
For “MRFFSLIKLPVVLVLAGLLSACGFHLRGEYSVPEELHTMSFSSYDEYSKLTRYVRSQLQLNKVDLVQPSSSVPNLHLIKATMDERTLSLYQNSRAAEKELTYVVQYRVTIPGFGSKNFTTTVNRNYLDNPLTALAKSVERDVIEDEMRQQAAKQMMRQLGRIRAEYEAGQIAAPTEKTNSLEHHHHHH”, the “soluble on expression in E. coli” value was “not soluble”.
For “MSLNIAIFINTPAQFHFYRNIAKELKNRGHFVELLFRDYGENLEIAKELGLNPTVYAKPSDSKYGKILSLPSDVLRATKLLKKFKPDIITGFGVYDAFSSFLVNVPCIVFNDSEPFINSSYAVQFKLFMPFTNVLITPEAFQPNFGTKHINIPSYKEFSYLHPNYYTPKEDIFELIGIEKNEEYILLRFNAFDAVHDAGITGFTKENKIKLVKELEKHCKVFISSETQVPKEIEKNILKTPKSRIHDVLYYAKILITDTQTMTTEAALLGTPALRYNKFVGGKDMSNFIELEKNYGLIFNYQNSEKIFERAFELLNTENLKEIWKKKRELLLKNKIDSTSFMVWFFENYPESFEKMKTDVTIYENFNDNLAKIKGEGHHHHHH”, the “soluble on expression in E. coli” value was “soluble”.
For “MTDTIEAKANMQTVSALPPEETERLGTEIVAALKTVFDPEIPADIYELGLIYKVEIKDDRTVDIDMTLTTPNCPAAAELPTMVENAVASVPGVGVVNVNIVWEPPWTPERMSDEARLVLNMW”, the “soluble on expression in E. coli” value was “not soluble”.
For “MGSDKIHHHHHHMIRSTLSSWREYLTPITHKSTFLTTGQITPEEFVQAGDYLCHMFPTWKWNEESSDISYRDFLPKNKQFLIIRKVPCDKRAEQCVEVEGPDVIMKGFAEDGDEDDVLEYIGSETEHVQSTPAGGTKDSSIDDIDELIQDMEIKEEDENDDTEEFNAKGGLAKDMAQERYYDLYIAYSTSYRVPKMYIVGFNSNGSPLSPEQMFEDISADYRTKTATIEKLPFYKNSVLSVSIHPCKHANVMKILLDKVRVVRQRRRKELQEEQELDGVGDWEDLQDDIDDSLRVDQYLIVFLKFITSVTPSIQHDYTMEGW”, the “soluble on expression in E. coli” value was “not soluble”.
For “MSLKRIVVANDLVGVGKVALSASIPLMASCLLEQVLLPTCLLSSHTGGGQNPVKHTTSSILDVFLTDWDNKRIKFDGIFIGYFTTTRDGQKLLEWLSRKQLPLILDPIMADNGKLYQGFSQKHIEIMIKLTQKAELVLPNISEACLLTQTAYLAKNYDEEDIRQVARKLAKLGPKQVVISGISFEEGSIGFAYYQSDSDQLTFHFGKQFPYHFYGTGDIASAIITAGFYYQLPLTQILDLVVSFLEKVLQNTLTLKRDLILGVAYESHLNYLTKSFKKLLEEKNVISKISEGHHHHHH”, the “soluble on expression in E. coli” value was “soluble”.
In the case of “MAHHHHHHMKAGGGLVALLAQTVVAGDVNACCGVLRRVFSETLQEDRRLTALASNAARSVRRRSHHSAGTAPSFATAPAAATKTLSSSASSSSLSSSSALATSSGPDDVVNFARYAQHQRAQAHSFANAAAQAVLRTSFVPPDGVRPLAVAAAGTKGHPTDAEVPQSHRASSAFGAPTDTPIAQRVWKLARSTLSTDSALVKTSSLHVLCHTAQRTGYWEEALHFCEYLPQSPAPLFLSSLLRPDNVNPILQHCATRGWALDVTNAIRVLAEEHGSWSAALVVAQDAEHRLPCGEAYSLGVLVPYLAVSGATAQARQLFESGLAHGALIDPVLVQQLVMQTATLRQWETCLHMLQCLYRTQETAQLLPADADFFCRLMEVSPGWVTSLQLLHMARASDVKPNERTVAILLTQCDQAGAWREAAAVYDMAVKEDFIDSLAVGSTYHTLVRSFSAIQQWQKALEALSWMSKADDASLTAGMMELVTLCEQSGQWEAALSVGSTLMDSGVHLLSTQTSMALLFLCAKGAQWEFAMRLFDAQLHDVRVDPHPLSLCAVMQACVAARQWEAALRVYDAAKASQPRMVVPPLAHRIAVKACVSAGKWNLAIAVLDATRQDGLPLDNYSQRLGLWAAAIQGQWELSLAFFQGIPRRSRTPQDRMMVRHVTRAISPAVDAIALRFLQSH”, the “soluble on expression in E. coli” value is reported as “not soluble”.
For “MANMLKIAMLSTGEEVLHGDIVDSNAAWLAREFYQHGFSLAKRATVGDSLPALVEELMMLSFNSDVVIVNGGLGPTSDDITAQAAAQAAEQPLVLNADWLSQLEAFFIGRGRAMPESNRKQAMLPANAEVIDNPIGTACGFKMQINDCWFYFTPGVPKEFYKMVSEQILPNLQRQFPSVQGQQCSRLYTFGTSESSISDKLDKMHLPEGYTLGYRSYLPFIEVKLFGPDQDQERRLSLLKIIHSHLEQYVVSIDEPMLTYLGHVMAEKGLSLALAEQATQGGLSSWLLSDPNVEALAGHSWILSHRVSSELAHQDPLAAAFALAGATKDKCGTQMALVTGALKEDHVSVALSTPNGEWGQTVKFVRRFSAQEQKEWIATLAADMLLRYLTGRSMFVGYSAVERVKEMHLPSSVLN”, the “soluble on expression in E. coli” value was “not soluble”.
In the case of “MGSDKIHHHHHHARPLSDVLNDVAARFQVRLKYDVDTVGRVLPYADFRIRPYSLEETLTNVLSPFDYKFVKQSDKVYKLKPYEYARRTDADGEKMLAYLSGLYSDKSQWEQRREILRKEVRQRLGLDDMLGKTVKDAKPVLSKIRKFDGYTVQNFALETLPGLYVCGSVYAPRTKGKHALIICPNGHFGQGRYRKDQQQRMATLARMGAVCVDYDLYGWGESALQVGGKAHHTADAHTIQAMNGIWILDYMLANRKDIDPACIGVNGGSGGGTQTVLLTVLDDRFTAAAPVVSLASHFDGGCPCESGKPIQLAGGGTCNAELAALFAPRPMLVVSDGGDWTATVPRLEYPYLQRIYGFYGATDKVSNVHLPQERHDFGPNKRNAVYDFFIDVFGLDRNMLDESKVTIEPEDALKSFGEKGEKLPAGALRYKE”, the “soluble on expression in E. coli” value is reported as “not soluble”.
In the case of “MSLNKSTVDYQNAKILMDNFYSSREININGDNVTIVINDIMYIPSIDELEIKNGDKNLIIKFDRDGNKVKYKDIECIEYLNLKKGEEISLFNKSYIVEDITSNYVILKEKDGKEVLTNESFEYDGYKVVVKLVSSDLNTIIVDIYKNEKVLDSPKLTKGKIYYMKGGTLGLMYENCTRIGKGYRFTFRVYSTIKIEEGEDYPLDKEFKVKEISTDKIKLEYKNIDSLGNEIYLFNYTIIPEKCYKDYVLFKVIKRKEKTVDVKDVAYIGDGIYAVKVNNTVHVFYKGKELKNHEKIYLGSVDVYSSNPLNVNKDIILIGGPKVNKIVKELEDKGLLKVNISTNYPGNNRGIILKIKNPYNDNNIYILAGSDRWGTKAAILVFLTKYNDEDTLMVEWDKGEIKIIKEGHHHHHH”, the “soluble on expression in E. coli” value is reported as “soluble”.
In the case of “MEHEQHSSINDILHHYKEGIGSFTNQIPEIAETYNAFTQACFQEGALTKREKQLIALGISLATQDEYCTIYHTKGCLDQGCSDKEILEACGVSAAFAGGAAMSQAVTLVQECLTELKNQKH”, the “soluble on expression in E. coli” value is reported as “not soluble”.
With “MTLELLQAQAQNCTACRLMEGRTRVVFGEGNPDAKLMIVGEGPGEEEDKTGRPFVGKAGQLLNRILEAAGIPREEVYITNIVKCRPPQNRAPLPDEAKICTDKWLLKQIELIAPQIIVPLGAVAAEFFLGEKVSITKVRGKWYEWHGIKVFPMFHPAYLLRNPSRAPGSPKHLTWLDIQEVKRALDALPPKERRPVKAVSQEPLF” the “soluble on expression in E. coli” value was “soluble”.
With “MNRQPIVQLSNLSWTFREGETRRQVLDHITFDFEPGEFVALLGQSGSGKSTLLNLISGIEKPTTGDVTINGFAITQKTERDRTLFRRDQIGIVFQFFNLIPTLTVLENITLPQELAGVSQRKAAVVARDLLEKVGMADRERTFPDKLSGGEQQRVAISRALAHNPMLVLADEPTGNLDSDTGDKVLDVLLDLTRQAGKTLIMATHSPSMTQHADRVVNLQGGRLIPAVNRENQTDQPASTILLPTSYE” the “soluble on expression in E. coli” value was “not soluble”.
With “MGSDKIHHHHHHMVEHRGFDVLSLPWLDVPRQAFLTQLQTQKVPHAQLVGIDSAYGGELLSVFMARAAMCSQPTHTGGCGFCKSCQLFDAGNHPDFYQIEADGHQIKVDQIRELCSRLSATAQQSGRRVAIIHHSERLNSASANALLKTLEEPGKDTLLLLHSDTPARLMATISSRCQRLPFVAPSKTLIKNWLIQQCQIQEDVTWCLSVVGGPLKLAESLQSNSTQPSRYQTLLGFRKDWAQSLSSGHLCASLLIISEQQIIDALKVLYLLLRQILLKNGNQDAYVQAQIGNLAAKVMGMCHSLSAMPSVNYLGLCQSYVLEYRDITNK” the “soluble on expression in E. coli” value was “not soluble”.
